According to the supplement of paper PMC9112550, “Optimization of the antimicrobial peptide Bac7 by deep mutational scanning” (BMC Biology, 2022):

Test system: Escherichia coli TOP10
Assay: shrunken log2 fold change of peptide-encoding DNA abundance (4.5 h post-induction vs induction); higher = less antimicrobial activity (less host growth inhibition)
Details: time post-induction: 4.5 h; library: site-saturation at positions 5, 18, 19, 20
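Further: peptides expressed intracellularly from a pBAD plasmid library in pooled LB shake-flask culture, induced with 0.3% L-arabinose, DNA abundance read by NGS, three biological replicates, DESeq2 with apeglm shrinkage.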

| Sequence | shrunken log2 fold change |
| --- | --- |
| RRIRKRPPRLPRPRPRPRWTPRP | 0.347 |
| RRIRGRPPRLPRPRPRPTCPPRP | 0.419 |
| RRIRYRPPRLPRPRPRPPQLPRP | -0.371 |
| RRIRFRPPRLPRPRPRPAVAPRP | 0.196 |
| RRIRRRPPRLPRPRPRPIKNPRP | 0.278 |
| RRIRDRPPRLPRPRPRPISEPRP | -0.0429 |
| RRIRARPPRLPRPRPRPGAWPRP | 0.259 |
| RRIRKRPPRLPRPRPRPGIQPRP | 0.0822 |
| RRIRTRPPRLPRPRPRPFMTPRP | -0.12 |
| RRIRKRPPRLPRPRPRPATGPRP | 0.145 |
| RRIRERPPRLPRPRPRPYRPPRP | -0.41 |
| RRIRIRPPRLPRPRPRPRLLPRP | -0.003 |
| RRIRVRPPRLPRPRPRPNWVPRP | 0.213 |
| RRIRMRPPRLPRPRPRPFRCPRP | -0.0869 |
| RRIRRRPPRLPRPRPRPRWRPRP | 0.832 |
| RRIRLRPPRLPRPRPRPCNCPRP | 0.045 |
| RRIRMRPPRLPRPRPRPCWPPRP | 0.218 |
| RRIRDRPPRLPRPRPRPYCGPRP | 0.0637 |
| RRIRRRPPRLPRPRPRPWNHPRP | -0.0953 |
| RRIRTRPPRLPRPRPRPGLEPRP | 0.198 |
| RRIRFRPPRLPRPRPRPSRMPRP | 0.311 |
| RRIRQRPPRLPRPRPRPRPLPRP | 0.382 |
| RRIRGRPPRLPRPRPRPKYEPRP | 0.56 |
| RRIRQRPPRLPRPRPRPQGTPRP | 0.193 |
| RRIRQRPPRLPRPRPRPFDGPRP | -0.901 |

| Sequence | shrunken log2 fold change |
| --- | --- |
| RRIRVRPPRLPRPRPRPSKAPRP | 0.0587 |
| RRIRIRPPRLPRPRPRPPAGPRP | 0.518 |
| RRIRIRPPRLPRPRPRPSRSPRP | -0.605 |
| RRIRHRPPRLPRPRPRPKNSPRP | -0.487 |
| RRIRTRPPRLPRPRPRPAVRPRP | 0.203 |
| RRIRSRPPRLPRPRPRPMVYPRP | -0.111 |
| RRIRARPPRLPRPRPRPMDKPRP | 0.0591 |
| RRIRKRPPRLPRPRPRPMILPRP | -0.388 |
| RRIRYRPPRLPRPRPRPEFAPRP | -0.167 |
| RRIRQRPPRLPRPRPRPMYDPRP | -0.0385 |
| RRIRCRPPRLPRPRPRPIKTPRP | -0.0653 |
| RRIRYRPPRLPRPRPRPQQKPRP | 0.0376 |
| RRIRSRPPRLPRPRPRPQPNPRP | -0.00561 |
| RRIRNRPPRLPRPRPRPGSLPRP | -0.0901 |
| RRIRVRPPRLPRPRPRPKQRPRP | 0.157 |
| RRIRWRPPRLPRPRPRPCQFPRP | -0.00192 |
| RRIRARPPRLPRPRPRPAQHPRP | 0.326 |
| RRIRCRPPRLPRPRPRPVRLPRP | 0.499 |
| RRIRRRPPRLPRPRPRPEMAPRP | 0.145 |
| RRIRFRPPRLPRPRPRPHFGPRP | -0.197 |
| RRIRDRPPRLPRPRPRPRMKPRP | 0.0166 |
| RRIRARPPRLPRPRPRPHTCPRP | -0.29 |
| RRIRPRPPRLPRPRPRPDTYPRP | -0.623 |
| RRIRWRPPRLPRPRPRPIFSPRP | 0.0085 |
| RRIRNRPPRLPRPRPRPHSSPRP | -0.00587 |

| Sequence | shrunken log2 fold change |
| --- | --- |
| RRIRCRPPRLPRPRPRPKLNPRP | -0.265 |
| RRIRDRPPRLPRPRPRPSAIPRP | 0.0484 |
| RRIRNRPPRLPRPRPRPATWPRP | -0.000853 |
| RRIRYRPPRLPRPRPRPWKPPRP | -0.2 |
| RRIRARPPRLPRPRPRPKRWPRP | 0.586 |
| RRIRKRPPRLPRPRPRPCDPPRP | 0.121 |
| RRIRLRPPRLPRPRPRPPSEPRP | 0.321 |
| RRIRKRPPRLPRPRPRPYELPRP | -0.0181 |
| RRIRGRPPRLPRPRPRPPFGPRP | 0.738 |
| RRIRERPPRLPRPRPRPWYSPRP | -0.798 |
| RRIRQRPPRLPRPRPRPCVAPRP | 0.317 |
| RRIRARPPRLPRPRPRPPGMPRP | 0.471 |
| RRIRDRPPRLPRPRPRPNQKPRP | 0.18 |
| RRIRRRPPRLPRPRPRPNHVPRP | -0.443 |
| RRIRSRPPRLPRPRPRPQKQPRP | -0.122 |
| RRIRCRPPRLPRPRPRPVPSPRP | -0.119 |
| RRIRERPPRLPRPRPRPDMLPRP | -0.166 |
| RRIRLRPPRLPRPRPRPASLPRP | 0.105 |
| RRIRWRPPRLPRPRPRPDFLPRP | -0.221 |
| RRIRCRPPRLPRPRPRPEGLPRP | 0.0021 |
| RRIRWRPPRLPRPRPRPETEPRP | 0.411 |
| RRIRERPPRLPRPRPRPNFRPRP | -0.479 |
| RRIRRRPPRLPRPRPRPGRSPRP | -0.104 |
| RRIRERPPRLPRPRPRPHCDPRP | 0.023 |
| RRIRNRPPRLPRPRPRPILTPRP | -0.135 |

| Sequence | shrunken log2 fold change |
| --- | --- |
| RRIRSRPPRLPRPRPRPGQPPRP | 0.214 |
| RRIRVRPPRLPRPRPRPLKAPRP | 0.157 |
| RRIRVRPPRLPRPRPRPCDTPRP | 0.0884 |
| RRIRGRPPRLPRPRPRPSENPRP | 0.359 |
| RRIRNRPPRLPRPRPRPQNPPRP | -0.117 |
| RRIRKRPPRLPRPRPRPAGTPRP | 0.992 |
| RRIRRRPPRLPRPRPRPACFPRP | 0.456 |
| RRIRNRPPRLPRPRPRPHEHPRP | -0.155 |
| RRIRNRPPRLPRPRPRPKMMPRP | -0.249 |
| RRIRNRPPRLPRPRPRPKWSPRP | 0.0717 |
| RRIRKRPPRLPRPRPRPRTRPRP | 0.618 |
| RRIRNRPPRLPRPRPRPLGDPRP | 0.218 |
| RRIRRRPPRLPRPRPRPKCLPRP | 0.144 |
| RRIRMRPPRLPRPRPRPEIAPRP | 0.0315 |
| RRIRWRPPRLPRPRPRPVKWPRP | -0.0659 |
| RRIRIRPPRLPRPRPRPQHQPRP | -0.344 |
| RRIRSRPPRLPRPRPRPSQCPRP | -0.265 |
| RRIRARPPRLPRPRPRPREYPRP | 0.5 |
| RRIRARPPRLPRPRPRPCSSPRP | 0.0291 |
| RRIRLRPPRLPRPRPRPPPWPRP | 0.892 |
| RRIRDRPPRLPRPRPRPSQNPRP | 0.113 |
| RRIRARPPRLPRPRPRPGGTPRP | 0.41 |
| RRIRMRPPRLPRPRPRPDGRPRP | -0.00101 |
| RRIRERPPRLPRPRPRPRQWPRP | -0.0536 |
| RRIRRRPPRLPRPRPRPPRQPRP | 1.04 |

| Sequence | shrunken log2 fold change |
| --- | --- |
| RRIRRRPPRLPRPRPRPFQQPRP | 0.282 |
| RRIRNRPPRLPRPRPRPMITPRP | -0.0996 |
| RRIRTRPPRLPRPRPRPETQPRP | 0.205 |
| RRIRQRPPRLPRPRPRPTFGPRP | 0.343 |
| RRIRVRPPRLPRPRPRPLKLPRP | -0.337 |
| RRIRRRPPRLPRPRPRPVFWPRP | 0.369 |
| RRIRIRPPRLPRPRPRPYALPRP | -0.0961 |
| RRIRCRPPRLPRPRPRPRFYPRP | -0.234 |
| RRIRRRPPRLPRPRPRPQKNPRP | 0.204 |
| RRIRFRPPRLPRPRPRPFDCPRP | -0.0469 |
| RRIRFRPPRLPRPRPRPQLRPRP | 0.0318 |
| RRIRSRPPRLPRPRPRPCSVPRP | 0.044 |
| RRIRIRPPRLPRPRPRPTYFPRP | -0.522 |
| RRIRIRPPRLPRPRPRPLQHPRP | -0.121 |
| RRIRARPPRLPRPRPRPKVVPRP | -0.0348 |
| RRIRSRPPRLPRPRPRPQYYPRP | -0.29 |
| RRIRFRPPRLPRPRPRPCNNPRP | -0.82 |
| RRIRRRPPRLPRPRPRPFLWPRP | 0.173 |
| RRIRVRPPRLPRPRPRPQQIPRP | -0.119 |
| RRIRQRPPRLPRPRPRPFETPRP | -0.232 |
| RRIRMRPPRLPRPRPRPSMQPRP | 0.345 |
| RRIRLRPPRLPRPRPRPWLPPRP | -0.464 |
| RRIRERPPRLPRPRPRPYKDPRP | -0.157 |
| RRIRMRPPRLPRPRPRPEYYPRP | -0.218 |
| RRIRMRPPRLPRPRPRPPPLPRP | 1.58 |

| Sequence | shrunken log2 fold change |
| --- | --- |
| RRIRKRPPRLPRPRPRPDIFPRP | -0.178 |
| RRIRCRPPRLPRPRPRPPTHPRP | 0.172 |
| RRIRERPPRLPRPRPRPHKDPRP | 0.144 |
| RRIRYRPPRLPRPRPRPFYDPRP | -0.708 |
| RRIRKRPPRLPRPRPRPCIMPRP | 1.3 |
| RRIRGRPPRLPRPRPRPLFTPRP | 0.572 |
| RRIRGRPPRLPRPRPRPRSTPRP | 0.978 |
| RRIRPRPPRLPRPRPRPFDKPRP | -0.0386 |
| RRIRKRPPRLPRPRPRPQTIPRP | 0.0582 |
| RRIRNRPPRLPRPRPRPSDQPRP | 0.0574 |
| RRIRPRPPRLPRPRPRPARNPRP | 0.328 |
| RRIRLRPPRLPRPRPRPWGHPRP | 0.105 |
| RRIRKRPPRLPRPRPRPSYDPRP | 0.0212 |
| RRIRFRPPRLPRPRPRPGVNPRP | 0.0431 |
| RRIRKRPPRLPRPRPRPHAHPRP | 0.428 |
| RRIRSRPPRLPRPRPRPSVAPRP | 0.575 |
| RRIRGRPPRLPRPRPRPCTFPRP | 0.0341 |
| RRIRRRPPRLPRPRPRPQVEPRP | 0.0147 |
| RRIRGRPPRLPRPRPRPYKKPRP | -0.186 |
| RRIRNRPPRLPRPRPRPHVAPRP | -0.0498 |
| RRIRVRPPRLPRPRPRPYCCPRP | -0.252 |
| RRIRKRPPRLPRPRPRPHDDPRP | 0.171 |
| RRIRMRPPRLPRPRPRPQCLPRP | -0.108 |
| RRIRWRPPRLPRPRPRPGVMPRP | 0.477 |
| RRIRGRPPRLPRPRPRPTLIPRP | 0.337 |
